# According to the supplement of paper PMC11780869:
# Test system: Bacillus subtilis
# Assay: cleaved RNA product abundance (RNA/gDNA barcode ratio) relative to median wild-type variant (ratio to wild type); higher = more accumulation of the downstream cleavage product
# Conditions: cleavage site: cggR-gapA (positions -7 to +36 mutated)
# Description: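 MPRA in B. subtilis. Mutagenized RNase Y cleavage-site regions (9% mutation rate) were inserted into a barcoded reporter mRNA (truncated aprE or tetM). Cells were grown in LB at 37°C to OD600 0.3. The cleaved RNA isoform was gel-purified and its barcodes counted; the RNA:gDNA barcode ratio was normalised to the median wild-type variant, and the median over barcodes is reported per variant. The printed sequence is the variable window only; the reporter flanks are not printed.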
# [1] = experiment (reporter, strain, medium): exp 2b: truncated aprE reporter, strain BJT200
# [2] = experiment (reporter, strain, medium): exp 4a: truncated aprE reporter, strain BJT201 with 2% xylose (RNase J1 expressed)
# [3] = experiment (reporter, strain, medium): exp 6: tetM reporter, strain 168
Sequence,cleaved RNA product abundance [1],cleaved RNA product abundance [2],cleaved RNA product abundance [3]
ACAGACGAAGGAGCCGCAAAAAAGTTATTAAGGGATGAATAATCCCTCAAAATAAATATCTCTCACTTATTTAAA,0.349,0.376,–
ACAGACGAAGGAGCCGCAAAAAAGTTATTAAGGGATGAATAATCCCTCAACATAAATATCTCTCACTTATTTAAA,0.239,0.272,–
ACAGACGAAGGAGCCGCAAAAAAGTTATTAAGGGATGAATAATCCCTCAAGATAAATATCTCTCACTTATTTAAA,0.251,–,–
ACAGACGAAGGAGCCGCAAAAAAGTTATTAAGGGATGAATAATCCCTCAATACAAATATCTCTCACTTATTTAAA,–,0.0755,–
ACAGACGAAGGAGCCGCAAAAAAGTTATTAAGGGATGAATAATCCCTCAATATAAAAATCTCTCACTTATTTAAA,1.08,0.82,–
ACAGACGAAGGAGCCGCAAAAAAGTTATTAAGGGATGAATAATCCCTCAATATAAACATCTCTCACTTATTTAAA,–,0.766,–
ACAGACGAAGGAGCCGCAAAAAAGTTATTAAGGGATGAATAATCCCTCAATATAAAGATCTCTCACTTATTTAAA,–,0.56,–
ACAGACGAAGGAGCCGCAAAAAAGTTATTAAGGGATGAATAATCCCTCAATATAAATAACTCTCACTTATTTAAA,–,1.13,–
ACAGACGAAGGAGCCGCAAAAAAGTTATTAAGGGATGAATAATCCCTCAATATAAATACCTCTCACTTATTTAAA,–,0.493,–
ACAGACGAAGGAGCCGCAAAAAAGTTATTAAGGGATGAATAATCCCTCAATATAAATATCTCTCACTTATTTAAA,1.06,1.04,1.04
ACAGACGAAGGAGCCGCAAAAAAGTTATTAAGGGATGAATAATCCCTCAATATAAATCTCTCTCACTTATTTAAA,–,0.362,–
ACAGACGAAGGAGCCGCAAAAAAGTTATTAAGGGATGAATAATCCCTCAATATAAATGTCTCTCACTTATTTAAA,0.243,0.309,–
ACAGACGAAGGAGCCGCAAAAAAGTTATTAAGGGATGAATAATCCCTCAATATAAATTTCTCTCACTTATTTAAA,–,1.04,–
ACAGACGAAGGAGCCGCAAAAAAGTTATTAAGGGATGAATAATCCCTCAATATACATATCTCTCACTTATTTAAA,–,0.996,–
ACAGACGAAGGAGCCGCAAAAAAGTTATTAAGGGATGAATAATCCCTCAATATAGATATCTCTCACTTATTTAAA,0.991,0.644,–
ACAGACGAAGGAGCCGCAAAAAAGTTATTAAGGGATGAATAATCCCTCAATATATATATCTCTCACTTATTTAAA,–,1.08,–
ACAGACGAAGGAGCCGCAAAAAAGTTATTAAGGGATGAATAATCCCTCAATATGAATATCTCTCACTTATTTAAA,0.135,–,–
ACAGACGAAGGAGCCGCAAAAAAGTTATTAAGGGATGAATAATCCCTCAATCTAAATATCTCTCACTTATTTAAA,0.137,–,–
ACAGACGAAGGAGCCGCAAAAAAGTTATTAAGGGATGAATAATCCCTCACTATAAATATCTCTCACTTATTTAAA,–,0.537,–
ACAGACGAAGGAGCCGCAAAAAAGTTATTAAGGGATGAATAATCCCTCAGTATAAATATCTCTCACTTATTTAAA,0.266,0.42,–
ACAGACGAAGGAGCCGCAAAAAAGTTATTAAGGGATGAATAATCCCTCATTATAAATATCTCTCACTTATTTAAA,0.293,0.417,–
ACAGACGAAGGAGCCGCAAAAAAGTTATTAAGGGATGAATAATCCCTCCATATAAATATCTCTCACTTATTTAAA,–,0.348,–

Sequence,cleaved RNA product abundance [1],cleaved RNA product abundance [2],cleaved RNA product abundance [3]
ACAGACGAAGGAGCCGCAAAAAAGTTATTAAGGGATGAATAATCCCTCGATATAAATATCTCTCACTTATTTAAA,0.396,0.555,–
ACAGACGAAGGAGCCGCAAAAAAGTTATTAAGGGATGAATAATCCCTCTATATAAATATCTCTCACTTATTTAAA,–,0.613,–
ACAGACGAAGGAGCCGCAAAAAAGTTATTAAGGGATGAATAATCCCTGAATATAAAGATCTCTCACTTATTTAAA,0.364,–,–
ACAGACGAAGGAGCCGCAAAAAAGTTATTAAGGGATGAATAATCCCTGAATATAAATATCTCTCACTTATTTAAA,–,0.427,–
ACAGACGAAGGAGCCGCAAAAAAGTTATTAAGGGATGAATAATCCCTTAATATAAATATCTCTCACTTATTTAAA,–,0.394,–
ACAGACGAAGGAGCCGCAAAAAAGTTATTAAGGGATGAATAATCCGTCAATATAAATATCTCTCACTTATTTAAA,0.168,0.242,–
ACAGACGAAGGAGCCGCAAAAAAGTTATTAAGGGATGAATAATCCTTCAATATAAATATCTCTCACTTATTTAAA,0.395,0.678,–
ACAGACGAAGGAGCCGCAAAAAAGTTATTAAGGGATGAATAATCTCTCAATATAAATATCTCTCACTTATTTAAA,0.703,0.694,0.897
ACAGACGAAGGAGCCGCAAAAAAGTTATTAAGGGATGAATAATTCCTCAATATAAATATCTCTCACTTATTTAAA,0.68,0.814,–
ACAGACGAAGGAGCCGCAAAAAAGTTATTAAGGGATGAATAATTCCTCTATATAAATATCTCTCACTTATTTAAA,–,0.264,–
ACAGACGAAGGAGCCGCAAAAAAGTTATTAAGGGATGAATACTCCCTCAATATAAATATCTCTCACTTATTTAAA,0.519,0.58,–
ACAGACGAAGGAGCCGCAAAAAAGTTATTAAGGGATGAATAGTCCCTCAATATAAATATCTCTCACTTATTTAAA,0.786,0.961,–
ACAGACGAAGGAGCCGCAAAAAAGTTATTAAGGGATGAATATTCCCTCAATATAAATATCTCTCACTTATTTAAA,0.665,0.566,–
ACAGACGAAGGAGCCGCAAAAAAGTTATTAAGGGATGAATCATCCCTCAATATAAATATCTCTCACTTATTTAAA,–,1.01,–
ACAGACGAAGGAGCCGCAAAAAAGTTATTAAGGGATGAATTATCCCTCAATATAAATATCTCTCACTTATTTAAA,–,0.808,–
ACAGACGAAGGAGCCGCAAAAAAGTTATTAAGGGATGACTAATCCCTCAATATAAATATCTCTCACTTATTTAAA,0.504,0.61,–
ACAGACGAAGGAGCCGCAAAAAAGTTATTAAGGGATGAGTAATCCCTCAATATAAATATCTCTCACTTATTTAAA,0.481,0.415,–
ACAGACGAAGGAGCCGCAAAAAAGTTATTAAGGGATGCATAATCCCTCAATATAAATATCTCTCACTTATTTAAA,0.986,1.02,–
ACAGACGAAGGAGCCGCAAAAAAGTTATTAAGGGATGTATAATCCCTCAATATAAATATCTCTCACTTATTTAAA,1.06,1.09,–
ACAGACGAAGGAGCCGCAAAAAAGTTATTAAGGGATTAATAATCCCTCAATATAAATATCTCTCACTTATTTAAA,1.51,0.881,–
ACAGACGAAGGAGCCGCAAAAAAGTTATTAAGGGCTGAATAATCCCTCAATATAAATATCTCTCACTTATTTAAA,0.478,0.694,–
ACAGACGAAGGAGCCGCAAAAAAGTTATTAAGGGGTGAATAATCCCTCAATATAAATATCTCTCACTTATTTAAA,0.759,0.602,–
